Experimental findings from US12161669 (UMC UTRECHT HOLDING B V, dated 2024) are described below.

This data set concerns the molecule itself. In words: flow cytometry FRET between anti-CD277-PE (donor) and anti-CD277-DyLight 680 (acceptor) on HEK 293 cells, medium or pamidronate (ABP).

B1: CD277 (butyrophilin BTN3A1) expressed on cells (Daudi, HEK 293, EBV-LCL 48) (receptor)
chain: not shown
notes: whole, on cells; The anti-CD277 antibodies may also see other BTN3 isoforms; also called CD277J
For B1, the binding result was “binds”.
